Experimental data: article PMC6874091

Target: 14-3-3 (endogenous, detected with a 14-3-3 antibody; isoform not told) (UniProt Q04917)
Assay: anti-FLAG co-immunoprecipitation, western blot densitometry
Settings: HeLa cells, transfected; mean ± SD of three experiments; read off a plot

Chain of UniProt Q04917 (Q04917 whole entry, canonical isoform): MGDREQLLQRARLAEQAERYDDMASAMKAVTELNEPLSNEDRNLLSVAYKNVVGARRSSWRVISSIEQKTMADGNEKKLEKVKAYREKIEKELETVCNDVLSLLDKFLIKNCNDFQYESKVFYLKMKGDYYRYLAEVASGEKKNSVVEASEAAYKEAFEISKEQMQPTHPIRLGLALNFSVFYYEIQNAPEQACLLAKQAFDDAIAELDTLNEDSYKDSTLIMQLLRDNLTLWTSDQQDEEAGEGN

“3xFLAG-BPLF1 (amino acid residues 1-235), catalytically active N-terminal deconjugase domain of the Epstein-Barr virus large tegument protein BPLF1 (from UniProt P03186) D86R; D90R” gave a ratio to parent of 0.49.
